Data on one substance can be found in article PMC6463007.

This assay concerns the target E. coli GyrB (DNA gyrase subunit B) (E. coli) (UniProt P0AES6).

E. coli GyrA (DNA gyrase subunit A), sequence (P0AES4 whole entry): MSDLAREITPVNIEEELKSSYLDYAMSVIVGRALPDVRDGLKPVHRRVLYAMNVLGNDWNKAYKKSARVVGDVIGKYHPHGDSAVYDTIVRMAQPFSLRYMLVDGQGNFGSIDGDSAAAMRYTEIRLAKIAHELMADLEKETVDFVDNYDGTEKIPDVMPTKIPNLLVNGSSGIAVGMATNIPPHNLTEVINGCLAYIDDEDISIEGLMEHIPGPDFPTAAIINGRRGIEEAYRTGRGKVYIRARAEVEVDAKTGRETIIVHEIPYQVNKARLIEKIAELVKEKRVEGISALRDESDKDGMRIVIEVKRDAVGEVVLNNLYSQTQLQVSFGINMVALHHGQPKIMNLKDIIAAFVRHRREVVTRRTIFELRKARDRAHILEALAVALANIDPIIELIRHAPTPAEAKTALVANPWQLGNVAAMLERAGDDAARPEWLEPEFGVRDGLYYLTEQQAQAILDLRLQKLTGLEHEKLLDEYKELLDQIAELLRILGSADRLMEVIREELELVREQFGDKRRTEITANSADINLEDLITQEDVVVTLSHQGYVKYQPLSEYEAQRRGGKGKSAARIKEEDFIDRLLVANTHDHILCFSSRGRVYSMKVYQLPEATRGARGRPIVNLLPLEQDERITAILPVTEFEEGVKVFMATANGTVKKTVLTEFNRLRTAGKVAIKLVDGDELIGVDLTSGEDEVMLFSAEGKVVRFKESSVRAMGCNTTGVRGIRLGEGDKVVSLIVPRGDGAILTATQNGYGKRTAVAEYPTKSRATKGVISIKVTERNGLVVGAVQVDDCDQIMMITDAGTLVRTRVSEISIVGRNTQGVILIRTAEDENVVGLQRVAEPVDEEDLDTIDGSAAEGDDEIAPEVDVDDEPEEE

Regarding “E. coli GyrA (DNA gyrase subunit A) (from UniProt P0AES4 1-875) (enzyme)”, the supercoiling of relaxed pMP1000 plasmid by gyrase reconstituted from the two purified subunits; time course 5-80 s after ATP, 30 °C, chloroquine gel (supercoils/sec) turned out to be 5.
